Data from US20180104307A1 (University of California, published 2018).

B1: GST-GIV-CT (amino acids 1660-1870) (other)
chain: ETLESRHHKIKTGSPGSEVVTLQQFLEESNKLTSVQIKSSSQENLLDEVMKSLSVSSDFLGKDKPVSCGLARSVSGKTPGDFYDRRTTKPEFLRPGPRKTEDTYFISSAGKPTPGTQGKIKLVKESSLSRQSKDSNPYATLPRASSVISTAEGTTRRTSIHDFLTKDSRLPISVDSPPAAADSNTTAASNVDKVQESRNSKSRSREQQSS
notes: Immobilised on glutathione-agarose beads; also called GST-tagged GIV-CT peptide; not shown: glutathione S-transferase tag
B2: TAT-GIV-CT-F1685A (peptide)
chain: MRGSHHHHHHGMASMTGGQQMGRDLYDDDDKDRWGSKLGYGRKKRRQRRRGGSTMSGYPYDVPDYAGSMGGSGHSGETLESRHHKIKTGSPGSEVVTLQQALEESNKLTSVQIKSSSQENLLDEVMKSLSVSSDFLGKDKPVSCGLARSVSGKTPGDFYDRRTTKPEFLRPGPRKTEDTYFISSAGKPTPGTQGKIKLVKESSLSRQSKDSNPYATLPRASSVISTAEGTTRRTSIHDFLTKDSRLPISVDSPPAAADSNTTAASNVDKVQESRNSKSRSREQQSS
notes: Recombinant, made in E. coli; GEF-deficient mutant; also called TAT-GIV-CT-FA; FA

How the values were obtained:
His-Gαi3 (GDP-loaded) = target: T1, His-Gαi3 (GDP-loaded) (UniProt P08753 1-354); test: GST pulldown: GST-GIV-CT on glutathione-agarose beads with 0.01-3 µM His-Gαi3; anti-His band intensities fitted to a single-site hyperbola; three experiments
T1 construct: Purified protein, GDP-loaded
T1 sequence (P08753 whole entry): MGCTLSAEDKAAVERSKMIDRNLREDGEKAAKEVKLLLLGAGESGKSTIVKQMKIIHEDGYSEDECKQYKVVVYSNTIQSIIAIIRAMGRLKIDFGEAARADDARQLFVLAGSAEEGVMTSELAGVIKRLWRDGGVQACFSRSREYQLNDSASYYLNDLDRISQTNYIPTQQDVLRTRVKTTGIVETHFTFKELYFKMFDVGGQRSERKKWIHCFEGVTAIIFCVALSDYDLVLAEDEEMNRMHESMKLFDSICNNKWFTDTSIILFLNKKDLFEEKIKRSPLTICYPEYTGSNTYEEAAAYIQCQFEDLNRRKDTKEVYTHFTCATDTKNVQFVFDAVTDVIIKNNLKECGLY

GST-Gαi3 (GDP loaded) = target: T2, GST-Gαi3 (GDP loaded) (rat, UniProt P08753 1-354); test: GST pulldown with GDP-loaded GST-Gαi3, anti-His immunoblot
T2 construct: not shown: glutathione S-transferase tag encoded by pGEX-4T-1
T2 sequence (P08753 whole entry): as above

Binder | Kd (His-Gαi3 (GDP-loaded)) [nM] | binding result (GST-Gαi3 (GDP loaded))
B1 | 240 | 
B2 |  | no binding
